Experimental data taken from patent publication US20240294593A1 (Genentech, published 2024).

target: T1, human PD-1-His (human, UniProt Q15116 25-167, limits assumed); assay: Octet
T1 construct: Antigen of the Octet assays; not shown: His tag
T1 sequence (Q15116 25-167 limits assumed): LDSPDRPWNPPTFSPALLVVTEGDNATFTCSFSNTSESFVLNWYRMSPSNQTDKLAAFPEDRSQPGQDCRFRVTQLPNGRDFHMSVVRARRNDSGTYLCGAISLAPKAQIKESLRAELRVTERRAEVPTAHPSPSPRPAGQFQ

Binder	Kd [nM]	koff [s⁻¹]	kon [M⁻¹ s⁻¹]
H1.25_L1 (antibody, human IgG1, kappa, V domains shown, also called VH-F34K; Kabat 32K; copies: 2 + 2) VH: EVQLVESGGGLVQPGGSLRLSCAASGFTFSSKGMHWVRQAPGKGLEWVSYISSGSSIIYYADSVKGRFTISRDNAKNSLYLQMNSLRAEDTAVYYCARGGRLVWSPDYWGQGTLVTVSS VL: DIVMTQSPDSLAVSLGERATINCKSSQSLLNSGNQKNYLTWYQQKPGQPPKLLIYWASTRESGVPDRFTGSGSGTDFTLTISSLQAEDVAVYYCQNDYSYPFTFGSGTKLEIKR	113	0.012	107000
H1.26_L1 (antibody, human IgG1, kappa, V domains shown, also called VH-G35A; Kabat 33A; copies: 2 + 2) VH: EVQLVESGGGLVQPGGSLRLSCAASGFTFSSFAMHWVRQAPGKGLEWVSYISSGSSIIYYADSVKGRFTISRDNAKNSLYLQMNSLRAEDTAVYYCARGGRLVWSPDYWGQGTLVTVSS VL: DIVMTQSPDSLAVSLGERATINCKSSQSLLNSGNQKNYLTWYQQKPGQPPKLLIYWASTRESGVPDRFTGSGSGTDFTLTISSLQAEDVAVYYCQNDYSYPFTFGSGTKLEIKR	193	0.036	187000
H1.29_L1 (antibody, human IgG1, kappa, V domains shown, also called VH-G35N; Kabat 33N) VH: EVQLVESGGGLVQPGGSLRLSCAASGFTFSSFNMHWVRQAPGKGLEWVSYISSGSSIIYYADSVKGRFTISRDNAKNSLYLQMNSLRAEDTAVYYCARGGRLVWSPDYWGQGTLVTVSS VL: DIVMTQSPDSLAVSLGERATINCKSSQSLLNSGNQKNYLTWYQQKPGQPPKLLIYWASTRESGVPDRFTGSGSGTDFTLTISSLQAEDVAVYYCQNDYSYPFTFGSGTKLEIKR	223	0.0437	196000
H1.28_L1 (antibody, human IgG1, kappa, V domains shown, also called VH-G35T; Kabat 33T; copies: 2 + 2) VH: EVQLVESGGGLVQPGGSLRLSCAASGFTFSSFTMHWVRQAPGKGLEWVSYISSGSSIIYYADSVKGRFTISRDNAKNSLYLQMNSLRAEDTAVYYCARGGRLVWSPDYWGQGTLVTVSS VL: DIVMTQSPDSLAVSLGERATINCKSSQSLLNSGNQKNYLTWYQQKPGQPPKLLIYWASTRESGVPDRFTGSGSGTDFTLTISSLQAEDVAVYYCQNDYSYPFTFGSGTKLEIKR	92.7	0.0279	301000
H1.36_L1 (antibody, human IgG1, kappa, V domains shown, also called VH-S54T; Kabat 52T; copies: 2 + 2) VH: EVQLVESGGGLVQPGGSLRLSCAASGFTFSSFGMHWVRQAPGKGLEWVSYITSGSSIIYYADSVKGRFTISRDNAKNSLYLQMNSLRAEDTAVYYCARGGRLVWSPDYWGQGTLVTVSS VL: DIVMTQSPDSLAVSLGERATINCKSSQSLLNSGNQKNYLTWYQQKPGQPPKLLIYWASTRESGVPDRFTGSGSGTDFTLTISSLQAEDVAVYYCQNDYSYPFTFGSGTKLEIKR	374	0.046	123000
H1.30_L1 (antibody, human IgG1, kappa, V domains shown, also called VH-G35H; Kabat 33H) VH: EVQLVESGGGLVQPGGSLRLSCAASGFTFSSFHMHWVRQAPGKGLEWVSYISSGSSIIYYADSVKGRFTISRDNAKNSLYLQMNSLRAEDTAVYYCARGGRLVWSPDYWGQGTLVTVSS VL: DIVMTQSPDSLAVSLGERATINCKSSQSLLNSGNQKNYLTWYQQKPGQPPKLLIYWASTRESGVPDRFTGSGSGTDFTLTISSLQAEDVAVYYCQNDYSYPFTFGSGTKLEIKR	76.4	0.0257	337000
H1.27_L1 (antibody, human IgG1, kappa, V domains shown, also called VH-G35S; Kabat 33S; copies: 2 + 2) VH: EVQLVESGGGLVQPGGSLRLSCAASGFTFSSFSMHWVRQAPGKGLEWVSYISSGSSIIYYADSVKGRFTISRDNAKNSLYLQMNSLRAEDTAVYYCARGGRLVWSPDYWGQGTLVTVSS VL: DIVMTQSPDSLAVSLGERATINCKSSQSLLNSGNQKNYLTWYQQKPGQPPKLLIYWASTRESGVPDRFTGSGSGTDFTLTISSLQAEDVAVYYCQNDYSYPFTFGSGTKLEIKR	104	0.0142	137000
H1.31_L1 (antibody, human IgG1, kappa, V domains shown, also called VH-G35D; Kabat 33D; copies: 2 + 2) VH: EVQLVESGGGLVQPGGSLRLSCAASGFTFSSFDMHWVRQAPGKGLEWVSYISSGSSIIYYADSVKGRFTISRDNAKNSLYLQMNSLRAEDTAVYYCARGGRLVWSPDYWGQGTLVTVSS VL: DIVMTQSPDSLAVSLGERATINCKSSQSLLNSGNQKNYLTWYQQKPGQPPKLLIYWASTRESGVPDRFTGSGSGTDFTLTISSLQAEDVAVYYCQNDYSYPFTFGSGTKLEIKR	56.4	0.0401	711000
mAb C H1.19_L1 (antibody, name in Kabat numbering, V domains shown) VH: EVQLVESGGGLVQPGGSLRLSCAASGFTFSSLGMHWVRQAPGKGLEWVSYISSGSSIIYYADSVKGRFTISRDNAKNSLYLQMNSLRAEDTAVYYCARGGRLVWSPDYWGQGTLVTVSS VL: DIVMTQSPDSLAVSLGERATINCKSSQSLLNSGNQKNYLTWYQQKPGQPPKLLIYWASTRESGVPDRFTGSGSGTDFTLTISSLQAEDVAVYYCQNDYSYPFTFGSGTKLEIK	16.7	0.00217	130000

target: T1, human PD-1-His; assay: Octet; remark: another data set of the same source

Binder	Kd [nM]	koff [s⁻¹]	kon [M⁻¹ s⁻¹]
H1.118_L1 (antibody, V domains shown, also called VH-G108Q; Kabat 96) VH: EVQLVESGGGLVQPGGSLRLSCAASGFTFSSFGMHWVRQAPGKGLEWVSYISSGSSIIYYADSVKGRFTISRDNAKNSLYLQMNSLRAEDTAVYYCARGQRLVWSPDYWGQGTLVTVSS VL: DIVMTQSPDSLAVSLGERATINCKSSQSLLNSGNQKNYLTWYQQKPGQPPKLLIYWASTRESGVPDRFTGSGSGTDFTLTISSLQAEDVAVYYCQNDYSYPFTFGSGTKLEIKR	192	0.0316	164000
H1.114_L1 (antibody, V domains shown, also called VH-G103Y; Kabat 95) VH: EVQLVESGGGLVQPGGSLRLSCAASGFTFSSFGMHWVRQAPGKGLEWVSYISSGSSIIYYADSVKGRFTISRDNAKNSLYLQMNSLRAEDTAVYYCARYGRLVWSPDYWGQGTLVTVSS VL: DIVMTQSPDSLAVSLGERATINCKSSQSLLNSGNQKNYLTWYQQKPGQPPKLLIYWASTRESGVPDRFTGSGSGTDFTLTISSLQAEDVAVYYCQNDYSYPFTFGSGTKLEIKR	592	0.0875	148000
H1.117_L1 (antibody, V domains shown, also called VH-G108T; Kabat 96) VH: EVQLVESGGGLVQPGGSLRLSCAASGFTFSSFGMHWVRQAPGKGLEWVSYISSGSSIIYYADSVKGRFTISRDNAKNSLYLQMNSLRAEDTAVYYCARGTRLVWSPDYWGQGTLVTVSS VL: DIVMTQSPDSLAVSLGERATINCKSSQSLLNSGNQKNYLTWYQQKPGQPPKLLIYWASTRESGVPDRFTGSGSGTDFTLTISSLQAEDVAVYYCQNDYSYPFTFGSGTKLEIKR	121	0.0105	86900
H1.116_L1 (antibody, V domains shown, also called VH-G108S; Kabat 96) VH: EVQLVESGGGLVQPGGSLRLSCAASGFTFSSFGMHWVRQAPGKGLEWVSYISSGSSIIYYADSVKGRFTISRDNAKNSLYLQMNSLRAEDTAVYYCARGSRLVWSPDYWGQGTLVTVSS VL: DIVMTQSPDSLAVSLGERATINCKSSQSLLNSGNQKNYLTWYQQKPGQPPKLLIYWASTRESGVPDRFTGSGSGTDFTLTISSLQAEDVAVYYCQNDYSYPFTFGSGTKLEIKR	183	0.0347	190000
H1.115_L1 (antibody, V domains shown, also called VH-G108A; Kabat 96) VH: EVQLVESGGGLVQPGGSLRLSCAASGFTFSSFGMHWVRQAPGKGLEWVSYISSGSSIIYYADSVKGRFTISRDNAKNSLYLQMNSLRAEDTAVYYCARGARLVWSPDYWGQGTLVTVSS VL: DIVMTQSPDSLAVSLGERATINCKSSQSLLNSGNQKNYLTWYQQKPGQPPKLLIYWASTRESGVPDRFTGSGSGTDFTLTISSLQAEDVAVYYCQNDYSYPFTFGSGTKLEIKR	76.7	0.0116	151000
